B1: h2F8 (antibody, V domains shown)
VH: EVQLVESGGGLVKPGGSLRLSCAASGFIFSDYNMNWVRQAPGKGLEWVSSITRSSRTIYYADSVKGRFTISRDNAKNSLHLQMNSLRDADTAVYYCAREDFDVSTGPYYMDVWGNGTTVIVSS
VL: EIVLTQSPGTLSLSPGERATLSCRASQSVSNMFLVWYQQKPGQAPRLLMYGASTRATDIPDRFSGSGSGTDFTLTISRLEPEDFAVYYCQQNGNSPYTFGQGTKLEIK
B2: h37D5 (antibody, V domains shown)
VH: EEQLVESGGRLLRPGESLSLSCAAVGFNFGDFGMAWVRQPPGKGLEWVAGINWSGHSTGFVDSMKGRLTISRDSAKSSLFLQMNSLRGEDTAVYYCARVGRLCSGDICDSMGAFDLWGQGTMVTVSS
VL: DIQMTQSPSTLSASIGDRVTITCRASQTIDNWLAWYQQRPGKAPKLLIYQASSLQSGVSSRFRGSGSGTEFTLTITSLQPDDFATYYCQKSNGYSRTFGQGTKVEIK
B3: hm37D5 (antibody, V domains shown)
VH: B2 VH
VL: B2 VL
B4: hm12G10 (antibody, V domains shown)
VH: EVQLLESGGRLLRPGGSLSLSCVASGFYFGDFGMSWVRQVPGKGLEWVSGIDWSGRSTGYVDSMKGRLTISRDNDKSSLYLQMNDLRGEDTAVYYCARVGRLCSGDSCDSMGAFDLWGQGTMVTVSS
VL: B2 VL with M4L, R18S, T28N, R39K, K45R, Q50K, Q55G, R61K, S67F, E105D
B5: h12G10 (antibody, human IgG1, V domains shown)
VH: B4 VH
VL: B2 VL with M4L, R18S, T28N, R39K, K45R, Q50K, Q55G, R61K, S67F, E105D
B6: h32B10 (antibody, V domains shown)
VH: QVQLVQSGAEVKKPGASVKVSCRASGYIFRNFDINWVRQATGQGLEWMGWMSPKSGDTGYAQKFQGRVTMTRDTSINTAYMELSSLTSEDSAVYYCARGVDGTNWGQGTRVTVSS
VL: DIVMTQSPDSLGVSLGERATISCKSSQSILDNSNNKNFIAWFQQKPGQPPKLLIYWASARESGVPDRFSGSGSGTEFTLTINSLQAEDVAVYYCYQYYSTPHTFGQGTKLDLR
B7: h7G6 (antibody, V domains shown)
VH: QVQLVESGGGVVQPGRSLRLSCAASGIAFNDYTMHWVRRSPDKGLEWVAAISYGGTNKYYADSVKGRFTISRDSSKNTLFLQMDSLRVEDTAVYYCARDSGYRSLLHWGQGTLVTVSS
VL: EIVLTQSPLSLPVTPGEPASISCRSSQSLVHRNGYNYLDWYLQKPGQSPQLLIYMASKRASGVPDRFSGSGSGTEFTLKISRVEAEDVGIYYCMQALQTWTFGQGTKVEVN

Changes are numbered by the printed parent chain.

Among the data in US20200199207A1 are EC50 values, retold here.

The assay deals with natural peanut extract. The assay can be described thus: ELISA, antigen-coated plate. A general note: An ELISA detects its analyte on a solid surface through an enzyme-linked reagent.
For orientation: EC50 means the concentration giving half of the maximal effect. The low end stands for an effect from little substance, the high end for a need for much substance. The molecule B1 gave an EC50 of 2.8 ng/mL.
B2 registered an EC50 of 6.5 ng/mL.
The molecule B3 gave an EC50 of 7.1 ng/mL.
As for B4, the EC50 was found to be 8.5 ng/mL.
B5 yielded an EC50 of 8.1 ng/mL.
For the molecule B6, the EC50 was determined as 4.8 ng/mL.
In turn, B7 displayed an EC50 of 2.8 ng/mL.
